Results on four molecules are retold here after paper PMC11387445, “L-Lactate dehydrogenase from Cyanidioschyzon merolae shows high catalytic efficiency for pyruvate reduction and is inhibited by ATP” (Plant Molecular Biology, 2024).

Data set [1] has as its target T1, CmLDH1 (Cyanidioschyzon merolae, UniProt M1V6D8).
T1 construct: gene CYME_CMA145C; full length, 354 residues; E. coli BL21(DE3)
T1 sequence (M1V6D8 1-354): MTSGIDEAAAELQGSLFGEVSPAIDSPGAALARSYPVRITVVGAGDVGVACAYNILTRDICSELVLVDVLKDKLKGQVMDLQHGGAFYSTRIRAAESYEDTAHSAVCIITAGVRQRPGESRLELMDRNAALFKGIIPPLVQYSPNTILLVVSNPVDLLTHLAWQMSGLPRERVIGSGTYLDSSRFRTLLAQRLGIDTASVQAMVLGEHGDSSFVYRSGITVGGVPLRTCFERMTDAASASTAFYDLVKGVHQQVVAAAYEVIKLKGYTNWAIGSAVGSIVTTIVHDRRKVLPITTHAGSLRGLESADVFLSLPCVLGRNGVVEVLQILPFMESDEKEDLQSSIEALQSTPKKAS
Put plainly: NADH oxidation at […] nm, relative activity. To be noted: inhibition, 0.20 mM pyruvate, 0.05 mM NADH, pH 7.0, 57 °C. It counts as biochemical.

In data set [2] the target is T1, CmLDH1. Nature of the data set: NADH oxidation at […] nm, relative activity. It counts as biochemical. The settings on record: activation; 5 mM FBP, 0.20 mM pyruvate, 0.05 mM NADH, pH 7.0, 57 °C.
Substrate in data set [3]: CC(=O)C(=O)O
Put plainly: purified protein. It counts as biochemical, Cyanidioschyzon merolae. The settings on record: 0.15 mM NADH, pH 4.5 (optimum), 57 °C, no effector.

Substrate in data set [4]: NC(=O)C1=CN([C@@H]2O[C@H](COP(=O)(O)OP(=O)(O)OC[C@H]3O[C@@H](n4cnc5c(N)ncnc54)[C@H](O)[C@@H]3O)[C@@H](O)[C@H]2O)C=CC1
Nature of the data set: purified protein. It is filed as biochemical, Cyanidioschyzon merolae. To be noted: 2 mM sodium pyruvate, pH 4.5 (optimum), 57 °C, no effector.

For `Nc1ncnc2c1ncn2[C@@H]1O[C@H](COP(=O)(O)OP(=O)(O)OP(=O)(O)O)[C@@H](O)[C@H]1O` [ATP], at CmLDH1 [1] (mixed inhibitor for NADH), the relative activity entry is “ATP and ADP (particularly ATP) decreased CmLDH1 activity”.

Take `O=P(O)(O)OC[C@H]1OC(O)(COP(=O)(O)O)[C@@H](O)[C@@H]1O` (stereo partly drawn) [FBP]: the “relative activity at 5 mM” value at CmLDH1 [2] is listed as 1.2 fold.

As for `Nc1ncnc2c1ncn2[C@@H]1O[C@H](COP(=O)(O)OP(=O)(O)O)[C@@H](O)[C@H]1O` [ADP], at CmLDH1 [1], the relative activity result was “ATP and ADP (particularly ATP) decreased CmLDH1 activity”.

B1: CmLDH1 (Cyanidioschyzon merolae strain 10D) (protein)
chain: T1 sequence (M1V6D8 1-354)
notes: full length, 354 residues; E. coli BL21(DE3)
B1: in the data set “purified protein [3]”, the K0.5 was 0.13 ± 0.005 mM, the kcat was found to be 314 ± 3 s⁻¹ and the kcat/Km was 2.46e+06 ± 75000 M⁻¹ s⁻¹. Further, in “purified protein [4]”, the K0.5 came out at 0.011 ± 0.0006 mM, the kcat worked out at 324 ± 6 s⁻¹ and the kcat/Km was 2.95e+07 ± 1.05e+06 M⁻¹ s⁻¹.
